Experimental findings from PMC7367873, “Dissecting the sequence determinants for dephosphorylation by the catalytic subunits of phosphatases PP1 and PP2A” (Nature Communications, 2020) are described below.

Test [1] has as its system GFP-14-3-3β. Nature of the test: GFP-14-3-3β co-IP with LC-MS/MS, untreated GFP-14-3-3β versus GFP control (14-3-3 interactome). Type of test: binding, human. The note with it: pairwise comparison untreated GFP-14-3-3β vs GFP, student's t-test; 3 replicates each; LC-MS/MS label-free quantification.
For test [2], the system named is GFP-14-3-3β and its binding proteins. Put plainly: GFP-14-3-3β co-IP with LC-MS/MS label-free quantification, untreated versus PP1c-treated. Also noted: species or system human. The following applies: pairwise comparison PP1 vs untreated, student's t-test; 3 replicates each; LC-MS/MS label-free quantification.

B1: PARD3 (protein, UniProt Q8TEW0 1-1356, looked up)
Partitioning defective 3 …: MKVTVCFGRTRVVVPCGDGHMKVFSLIQQAVTRYRKAIAKDPNYWIQVHRLEHGDGGILDLDDILCDVADDKDRLVAVFDEQDPHHGGDGTSASSTGTQSPEIFGSELGTNNVSAFQPYQATSEIEVTPSVLRANMPLHVRRSSDPALIGLSTSVSDSNFSSEEPSRKNPTRWSTTAGFLKQNTAGSPKTCDRKKDENYRSLPRDTSNWSNQFQRDNARSSLSASHPMVGKWLEKQEQDEDGTEEDNSRVEPVGHADTGLEHIPNFSLDDMVKLVEVPNDGGPLGIHVVPFSARGGRTLGLLVKRLEKGGKAEHENLFRENDCIVRINDGDLRNRRFEQAQHMFRQAMRTPIIWFHVVPAANKEQYEQLSQSEKNNYYSSRFSPDSQYIDNRSVNSAGLHTVQRAPRLNHPPEQIDSHSRLPHSAHPSGKPPSAPASAPQNVFSTTVSSGYNTKKIGKRLNIQLKKGTEGLGFSITSRDVTIGGSAPIYVKNILPRGAAIQDGRLKAGDRLIEVNGVDLVGKSQEEVVSLLRSTKMEGTVSLLVFRQEDAFHPRELNAEPSQMQIPKETKAEDEDIVLTPDGTREFLTFEVPLNDSGSAGLGVSVKGNRSKENHADLGIFVKSIINGGAASKDGRLRVNDQLIAVNGESLLGKTNQDAMETLRRSMSTEGNKRGMIQLIVARRISKCNELKSPGSPPGPELPIETALDDRERRISHSLYSGIEGLDESPSRNAALSRIMGESGKYQLSPTVNMPQDDTVIIEDDRLPVLPPHLSDQSSSSSHDDVGFVTADAGTWAKAAISDSADCSLSPDVDPVLAFQREGFGRQSMSEKRTKQFSDASQLDFVKTRKSKSMDLGIADETKLNTVDDQKAGSPSRDVGPSLGLKKSSSLESLQTAVAEVTLNGDIPFHRPRPRIIRGRGCNESFRAAIDKSYDKPAVDDDDEGMETLEEDTEESSRSGRESVSTASDQPSHSLERQMNGNQEKGDKTDRKKDKTGKEKKKDRDKEKDKMKAKKGMLKGLGDMFRFGKHRKDDKIEKTGKIKIQESFTSEEERIRMKQEQERIQAKTREFRERQARERDYAEIQDFHRTFGCDDELMYGGVSSYEGSMALNARPQSPREGHMMDALYAQVKKPRNSKPSPVDSNRSTPSNHDRIQRLRQEFQQAKQDEDVEDRRRTYSFEQPWPNARPATQSGRHSVSVEVQMQRQRQEERESSQQAQRQYSSLPRQSRKNASSVSQDSWEQNYSPGEGFQSAKENPRYSSYQGSRNGYLGGHGFNARVMLETQELLRQEQRRKEQQMKKQPPSEGPSNYDSYKKVQDPSYAPPKGPFRQDVPPSPSQVARLNRLQTPEKGRPFYS
Consider B1, for which, in test [1], the “Difference (log2), untreated vs GFP” value was determined as 5.534 log2. The “Difference (log2), PP1 vs untreated” value in test [2] is -2.404 log2.

B2: CLASP2 (protein, UniProt O75122 1-1294, looked up)
CLIP-associating protein 2: MAMGDDKSFDDEESVDGNRPSSAASAFKVPAPKTSGNPANSARKPGSAGGPKVGGASKEGGAGAVDEDDFIKAFTDVPSIQIYSSRELEETLNKIREILSDDKHDWDQRANALKKIRSLLVAGAAQYDCFFQHLRLLDGALKLSAKDLRSQVVREACITVAHLSTVLGNKFDHGAEAIVPTLFNLVPNSAKVMATSGCAAIRFIIRHTHVPRLIPLITSNCTSKSVPVRRRSFEFLDLLLQEWQTHSLERHAAVLVETIKKGIHDADAEARVEARKTYMGLRNHFPGEAETLYNSLEPSYQKSLQTYLKSSGSVASLPQSDRSSSSSQESLNRPFSSKWSTANPSTVAGRVSAGSSKASSLPGSLQRSRSDIDVNAAAGAKAHHAAGQSVRSGRLGAGALNAGSYASLEDTSDKLDGTASEDGRVRAKLSAPLAGMGNAKADSRGRSRTKMVSQSQPGSRSGSPGRVLTTTALSTVSSGVQRVLVNSASAQKRSKIPRSQGCSREASPSRLSVARSSRIPRPSVSQGCSREASRESSRDTSPVRSFQPLASRHHSRSTGALYAPEVYGASGPGYGISQSSRLSSSVSAMRVLNTGSDVEEAVADALKKPARRRYESYGMHSDDDANSDASSACSERSYSSRNGSIPTYMRQTEDVAEVLNRCASSNWSERKEGLLGLQNLLKNQRTLSRVELKRLCEIFTRMFADPHGKRVFSMFLETLVDFIQVHKDDLQDWLFVLLTQLLKKMGADLLGSVQAKVQKALDVTRESFPNDLQFNILMRFTVDQTQTPSLKVKVAILKYIETLAKQMDPGDFINSSETRLAVSRVITWTTEPKSSDVRKAAQSVLISLFELNTPEFTMLLGALPKTFQDGATKLLHNHLRNTGNGTQSSMGSPLTRPTPRSPANWSSPLTSPTNTSQNTLSPSAFDYDTENMNSEDIYSSLRGVTEAIQNFSFRSQEDMNEPLKRDSKKDDGDSMCGGPGMSDPRAGGDATDSSQTALDNKASLLHSMPTHSSPRSRDYNPYNYSDSISPFNKSALKEAMFDDDADQFPDDLSLDHSDLVAELLKELSNHNERVEERKIALYELMKLTQEESFSVWDEHFKTILLLLLETLGDKEPTIRALALKVLREILRHQPARFKNYAELTVMKTLEAHKDPHKEVVRSAEEAASVLATSISPEQCIKVLCPIIQTADYPINLAAIKMQTKVIERVSKETLNLLLPEIMPGLIQGYDNSESSVRKACVFCLVAVHAVIGDELKPHLSQLTGSKMKLLNLYIKRAQTGSGGADPTTDVSGQS
For the molecule B2, in test [1], the “Difference (log2), untreated vs GFP” value is 2.306 log2. Further, the “Difference (log2), PP1 vs untreated” value in test [2] is listed as -2.4301 log2.

B3: FGD6 (protein, UniProt Q6ZV73 1-1430, looked up)
FYVE, RhoGEF and PH …: MTSAAEIKKPPVAPKPKFVVANNKPAPPPIAPKPDIVISSVPQSTKKMKPAIAPKPKVLKTSPVREIGQSPSRKIMLNLEGHKQELAESTDNFNCKYEGNQSNDYISPMCSCSSECIHKLGHRENLCVKQLVLEPLEMNENLENSKIDETLTIKTRSKCDLYGEKAKNQGGVVLKASVLEEELKDALIHQMPPFISAQKHRPTDSPEMNGGCNSNGQFRIEFADLSPSPSSFEKVPDHHSCHLQLPSDECEHFETCQDDSEKSNNCFQSSELEALENGKRSTLISSDGVSKKSEVKDLGPLEIHLVPYTPKFPTPKPRKTRTARLLRQKCVDTPSESTEEPGNSDSSSSCLTENSLKINKISVLHQNVLCKQEQVDKMKLGNKSELNMESNSDAQDLVNSQKAMCNETTSFEKMAPSFDKDSNLSSDSTTVDGSSMSLAVDEGTGFIRCTVSMSLPKQLKLTCNEHLQSGRNLGVSAPQMQKESVIKEENSLRIVPKKPQRHSLPATGVLKKAASEELLEKSSYPSSEEKSSEKSLERNHLQHLCAQNRGVSSSFDMPKRASEKPVWKLPHPILPFSGNPEFLKSVTVSSNSEPSTALTKPRAKSLSAMDVEKCTKPCKDSTKKNSFKKLLSMKLSICFMKSDFQKFWSKSSQLGDTTTGHLSSGEQKGIESDWQGLLVGEEKRSKPIKAYSTENYSLESQKKRKKSRGQTSAANGLRAESLDDQMLSRESSSQAPYKSVTSLCAPEYENIRHYEEIPEYENLPFIMAIRKTQELEWQNSSSMEDADANVYEVEEPYEAPDGQLQLGPRHQHSSSGASQEEQNDLGLGDLPSDEEEIINSSDEDDVSSESSKGEPDPLEDKQDEDNGMKSKVHHIAKEIMSSEKVFVDVLKLLHIDFRDAVAHASRQLGKPVIEDRILNQILYYLPQLYELNRDLLKELEERMLHWTEQQRIADIFVKKGPYLKMYSTYIKEFDKNIALLDEQCKKNPGFAAVVREFEMSPRCANLALKHYLLKPVQRIPQYRLLLTDYLKNLIEDAGDYRDTQDALAVVIEVANHANDTMKQGDNFQKLMQIQYSLNGHHEIVQPGRVFLKEGILMKLSRKVMQPRMFFLFNDALLYTTPVQSGMYKLNNMLSLAGMKVRKPTQEAYQNELKIESVERSFILSASSATERDEWLEAISRAIEEYAKKRITFCPSRSLDEADSENKEEVSPLGSKAPIWIPDTRATMCMICTSEFTLTWRRHHCRACGKIVCQACSSNKYGLDYLKNQPARVCEHCFQELQKLDHQHSPRIGSPGNHKSPSSALSSVLHSIPSGRKQKKIPAALKEVSANTEDSSMSGYLYRSKGNKKPWKHFWFVIKNKVLYTYAASEDVAALESQPLLGFTVIQVKDENSESKVFQLLHKNMLFYVFKAEDAHSAQKWIEAFQEGTIL
B3: the “Difference (log2), untreated vs GFP” value in test [1] was 2.545 log2. Also, in test [2], the “Difference (log2), PP1 vs untreated” value is -2.212 log2.

B4: AMER1 (protein, UniProt Q5JTC6 1-1135, looked up)
APC membrane recruitment …: METQKDEAAQAKGAAASGSTREQTAEKGAKNKAAEATEGPTSEPSSSGPGRLKKTAMKLFGGKKGICTLPSFFGGGRSKGSGKGSSKKGLSKSKTHDGLSEAAHGPEDVVSEGTGFSLPLPELPCQFPSSQSAHGALETGSRCKTSVAGATEKAVAEKFPSMPKPKKGLKGFFSSIRRHRKSKVTGAEQSEPGAKGPERVRARPHEHVSSAPQVPCFEETFQAPRKENANPQDAPGPKVSPTPEPSPPATEKMACKDPEKPMEACASAHVQPKPAPEASSLEEPHSPETGEKVVAGEVNPPNGPVGDPLSLLFGDVTSLKSFDSLTGCGDIIAEQDMDSMTDSMASGGQRANRDGTKRSSCLVTYQGGGEEMALPDDDDEEEEEEEEVELEEEEEEVKEEEEDDDLEYLWETAQMYPRPNMNLGYHPTTSPGHHGYMLLDPVRSYPGLAPGELLTPQSDQQESAPNSDEGYYDSTTPGFEDDSGEALGLVRRDCLPRDSYSGDALYEFYEPDDSLENSPPGDDCLYDLHGRSSEMFDPFLNFEPFLSSRPPGAMETEEERLVTIQKQLLYWELRREQLEAQEARAREAHAREAHAREAYTREAYGREAYAREAHTWEAHGREARTREAQAREVRCRETQVRETQARQEKPVLEYQMRPLGPSVMGLAAGVSGTSQISHRGITSAFPTTASSEPDWRDFRPLEKRYEGTCSKKDQSTCLMQLFQSDAMFEPDMQEANFGGSPRRAYPTYSPPEDPEEEEVEKEGNATVSFSQALVEFTSNGNLFSSMSCSSDSDSSFTQNLPELPPMVTFDIADVERDGEGKCEENPEFHNDEDLAASLEAFELGYYHKHAFNNYHSRFYQGLPWGVSSLPRYLGLPGLHPRPPPAAMALNRRSRSLDTAETLEMELSNSHLVQGYLESDELQAQQEDSDEEDEEEEEGEWSRDSPLSLYTEPPGAYDWPAWAPCPLPVGPGPAWISPNQLDRPSSQSPYRQATCCIPPMTMSISLSVPESRAPGESGPQLARPSHLHLPMGPCYNLQPQASQSMRARPRDVLLPVDEPSCSSSSGGFSPSPLPQAKPVGITHGIPQLPRVRPEHPQPQPTHYGPSSLDLSKERAEQGASLATSYSSTAMNGNLAK
Consider B4, for which, in test [1], the “Difference (log2), untreated vs GFP” value is listed as 1.494 log2. In addition, the “Difference (log2), PP1 vs untreated” value in test [2] is -2.386 log2.

B5: FOXK1 (protein, UniProt P85037 2-733, looked up)
Forkhead box protein K1: AEVGEDSGARALLALRSAPCSPVLCAAAAAAAFPAAAPPPAPAQPQPPPGPPPPPPPPLPPGAIAGAGSSGGSSGVSGDSAVAGAAPALVAAAAASVRQSPGPALARLEGREFEFLMRQPSVTIGRNSSQGSVDLSMGLSSFISRRHLQLSFQEPHFYLRCLGKNGVFVDGAFQRRGAPALQLPKQCTFRFPSTAIKIQFTSLYHKEEAPASPLRPLYPQISPLKIHIPEPDLRSMVSPVPSPTGTISVPNSCPASPRGAGSSSYRFVQNVTSDLQLAAEFAAKAASEQQADTSGGDSPKDESKPPFSYAQLIVQAISSAQDRQLTLSGIYAHITKHYPYYRTADKGWQNSIRHNLSLNRYFIKVPRSQEEPGKGSFWRIDPASEAKLVEQAFRKRRQRGVSCFRTPFGPLSSRSAPASPTHPGLMSPRSGGLQTPECLSREGSPIPHDPEFGSKLASVPEYRYSQSAPGSPVSAQPVIMAVPPRPSSLVAKPVAYMPASIVTSQQPAGHAIHVVQQAPTVTMVRVVTTSANSANGYILTSQGAAGGSHDAAGAAVLDLGSEARGLEEKPTIAFATIPAAGGVIQTVASQMAPGVPGHTVTILQPATPVTLGQHHLPVRAVTQNGKHAVPTNSLAGNAYALTSPLQLLATQASSSAPVVVTRVCEVGPKEPAAAVAATATTTPATATTASASASSTGEPEVKRSRVEEPSGAVTTPAGVIAAAGPQGPGTGE
For the molecule B5, the “Difference (log2), untreated vs GFP” value in test [1] is 5.634 log2. In addition, the “Difference (log2), PP1 vs untreated” value in test [2] is -2.312 log2.
